The source of these data is article PMC5269676 (Scientific Reports, 2017).

Where a chain is given by its changes, count along the chain named.

Test [1] has as its target Keap1 (Homo sapiens).
The target in test [2] is T1, Keap1 (Homo sapiens).
T1 construct: Keap1, BTB-Kelch substrate adaptor protein; the crystallised construct is in PDB 5F72; source: recombinant, purified (procedures in Supplementary Methods)
The test is described as follows: not stated; potency of LS146-scFv against its Fab form (Supplementary Fig. S6).

Test [3] deals with T2, Kelch domain of Keap1.
T2 construct: Cloned into pET-28a in frame with an N-terminal His tag and a TEV protease cleavage site; stored in 20 mM Tris pH 7.5, 5 mM DTT; source: E. coli BL21 (DE3), purified (Ni-NTA, His tag cut off, Ni-NTA flow-through, Superdex 75, if necessary Mono Q); not shown: His tag, N-terminal, cleaved
T2 chain: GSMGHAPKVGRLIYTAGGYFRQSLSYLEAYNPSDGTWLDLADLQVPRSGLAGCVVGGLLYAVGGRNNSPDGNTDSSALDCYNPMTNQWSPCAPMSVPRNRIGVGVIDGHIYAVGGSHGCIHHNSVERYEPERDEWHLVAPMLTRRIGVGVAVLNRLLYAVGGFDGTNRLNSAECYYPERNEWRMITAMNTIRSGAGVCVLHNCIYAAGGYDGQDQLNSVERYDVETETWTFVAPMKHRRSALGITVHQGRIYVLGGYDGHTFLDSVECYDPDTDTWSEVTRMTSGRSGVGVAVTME
The experiment in a line: SPR; Biacore competition assay; concentration of LS146-scFv varied, percent inhibition fitted to a variable slope model; what was immobilised is not told. The following applies: both partners purified. For orientation: In SPR one partner is held on a chip, and binding of the other changes the refractive index at the surface.

For orientation: IC50 means the midpoint of a concentration-inhibition curve.

B1: G55 (antibody, V domains shown)
VH: EVQLVESGGGLIRPGGSLRLSCKGSGFIFENFGFGWVRQGPGKGLEWVSGTNWNGGDSRYGDSVKGRFTISRDNSNNFVYLQMNSLRPEDTAIYYCARGTDYTIDETGERYQGSGTFWYFDVWGRGTLVTVSS
VL: EIVLTQSPDTLSLSPGERATLSCRASQSVHSRYFAWYQHKPGQPPRLLIYGGSTRATGIPNRFSAGGSGTQFTLTVNRLEAEDFAVYYCQQYGASPYTFGQGTKVEIR
In the case of B1, the binding result in test [1] was “binds”.

B2: G56 (antibody, V domains shown)
VH: B1 VH with Y111A
VL: EIVLTQSPATLSVSPGERATLSCRASQNVHPRYFAWYQQKRGQSPRLLIHSGSTRAAGIADRFSGGGSGMHFTLTITRVEPEDFAVYFCQQYGGSPYTFGQGTRVELR
On to B2, for which the binding result in test [1] is “binds”.

B3: G54 (antibody, V domains shown)
VH: EVQLVESGGGLVQPGGSLRLSCAASGFAISASSIHWVRQAPGKGLEWVASISPETGETYYADSVAGRFTISADTSKNTAYLQMNSLRAEDTAVYYCARQGYAARSGAGFDYWGQGTLVTVSS
VL: DIQMTQSPSSLSASVGDRVTITCRASQSVSSAVAWYQQKPGKAPKLLIYSASSLYSGVPSRFSGSRSGTDFTLTISSLQPEDFATYYCQQSYSFPSTFGQGTKVEIK
On to B3, for which, in test [1], the binding result was “binds”.

B4: LS146-scFv (scFv, V domains shown)
VH: EVQLVESGGGLVQPGGSLRLSCAASGFAISASSIHWVRQAPGKCLEWVASIDPETGETLYAKSVAGRFTISADTSKNTAYLQMNSLRAEDTAVYYCARAYAGDGVYYADVWGQGTLVTVSS
VL: B3 VL with Q100C
notes: VH of LS146; (Gly4Ser)4 linker, written out; VL of LS146; The His10 tag is cleavable by TEV protease; also called LS146 formatted as a single chain Fv; crystal LS146-scFv; source: CHO-S XE cells; purification in Supplementary Methods
As for B4, the “fold lower potency than the Fab form (LS146 Fab)” value in test [2] is 3 fold.

B5: LS146-scFv (scFv)
scFv: EVQLVESGGGLVQPGGSLRLSCAASGFAISASSIHWVRQAPGKCLEWVASIDPETGETLYAKSVAGRFTISADTSKNTAYLQMNSLRAEDTAVYYCARAYAGDGVYYADVWGQGTLVTVSSGGGGSGGGGSGGGGSGGGGSDIQMTQSPSSLSASVGDRVTITCRASQSVSSAVAWYQQKPGKAPKLLIYSASSLYSGVPSRFSGSRSGTDFTLTISSLQPEDFATYYCQQSYSFPSTFGCGTKVEIKRT
notes: VH of LS146-scFv; (Gly4Ser)4 linker; VL of LS146-scFv; two residues between VL and the TEV site; also called scFv-LS146; source: CHO-S XE cells, transiently transfected, purified (HisTrap excel, His tag removed, HisTrap flow-through, Superdex 75); not shown: His10 (after a TEV protease cleavage site), C-terminal, cleaved
Molecule B5 registered an IC50 in test [3] of 79 nM.
